The source of these data is the nanobody polyreactivity screen of Harvey et al. (2022).

The series can be described thus: yeast display, Sf9 membrane polyspecificity reagent, FACS + sequencing; frameworks hold sequencing errors. The method, boiled down:
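Polyreactivity labels are assigned by the sorting gate from which each nanobody was recovered. The gates were low and high (top ~1%), set on anti-HA fluorescence for expression and streptavidin fluorescence for reagent binding. Before sorting, galactose-induced (36–48 hours) yeast display cells were stained for 1 hour at 4 °C with 10% biotinylated, detergent-solubilized Sf9 membrane reagent.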
Regarding “QVQLVESGGGLVQAGGSLRLSCAASGSIFAVYAMGWYRQAPGKERELVAASSTDYAESVKGRFTISRDNAKNTVFLQLNRLKPEDTAVYYCAKVGFGIPGGFYYWGQGTQVTVSS”, the “polyreactivity (PSR sort gate)” value is on record as “low polyreactivity”.

On to “QVQLVESGGGLVQAGGSLRLSCAASGSIFAVYAMGWYRQAPGKERELVAVITRSGGSTYYADSVKGRFTISRDNAKNTVYLQMISLKPEDTAVYYCAARTGYGYTRYEYWGQGTQVTVSS”, for which the “polyreactivity (PSR sort gate)” value is “high polyreactivity”.

For “QVQLVESGGGLVQAGGSLRLSCAASGSIFAVYVMGWYRQAPGKDRELVAAIRRGGTTTYADSVKGRFTISRDNAKTTVYLQMNSLKPEDTAVYYCAADSYARYLYSYYSPYDYWGQGTQVTVSS”, the “polyreactivity (PSR sort gate)” value is on record as “low polyreactivity”.

Regarding “QVQLVESGGGLVQAGGSLRLSCAASGSIFAWYALGWYRQAPGKERELVADITQSGGSTYYADSVKGRFTISRDNAKNTVYLQMNSLKPEDTAVYYCVDYWYNYLQSGWEDDYWGQGTQVTVSS”, the “polyreactivity (PSR sort gate)” value was “low polyreactivity”.

Regarding “QVQLVESGGGLVQAGGSLRLSCAASGSIFAYAMGWYRKAPGKEMELVAAISGGSTYYADSVKGRFTISRDNAKNTVYLQMNSVKPEDTAVYYCAADLDDERYYWGQGTQVTVSS”, the “polyreactivity (PSR sort gate)” value was “low polyreactivity”.

Consider “QVQLVESGGGLVQAGGSLRLSCAASGSIFAYAMGWYRQAHGKERELVAAISGGSTYYADSVKGRFTISRENAKNTVYLQMNSLKPEETAVYYCAADLDDERYYWGQGTQVTVSS”, for which the “polyreactivity (PSR sort gate)” value is “low polyreactivity”.

“QVQLVESGGGLVQAGGSLRLSCAASGSIFAYNAMGWYRQAPGKEREFVASISSNGDSTFYADSVKGRFTISRDNAKNTVYLQMNSLKPEDTAVYYCAADVIAWDGYLWQRYDYWGQGTQVTVSS”: the “polyreactivity (PSR sort gate)” value is listed as “low polyreactivity”.

For “QVQLVESGGGLVQAGGSLRLSCAASGSIFAYNAMGWYRQAPGKERELVAANSYSGASTYYADSVKGRFTISRDNAKNTVYLQMNSLKPEDTEVYYCAATSRRRGTKGYWQVWPRFDYWGQGTQVTVSS”, the “polyreactivity (PSR sort gate)” value is listed as “high polyreactivity”.

For “QVQLVESGGGLVQAGGSLRLSCAASGSIFAYYAIGWYRQAPGKEREFVAAISISGGSTNYADSVKRRFTISRDNAKNTVYLQMNSLKPEDTAVYSCAATSRWSSFGFYGQYNFWGQGTQVTVSS”, the “polyreactivity (PSR sort gate)” value is given as “high polyreactivity”.

“QVQLVESGGGLVQAGGSLRLSCAASGSIFAYYAMGWYREAPGKERELVADITSSGGITYSADSVKGRFTISRDNAKNTVYLLMNSLKPEDTAGYYCNADSWAIGGGSYPYDYWGQGTKVTVSS”: the “polyreactivity (PSR sort gate)” value is “low polyreactivity”.

Regarding “QVQLVESGGGLVQAGGSLRLSCAASGSIFAYYAMGWYRQAPGKERELVAAISRRGGSTYYADSVKGRFTISRDNAKNTVYLQMNSLKPEDTAVYYCAADGGGTTSLEYGNDYWGQGTQVTVSS”, the “polyreactivity (PSR sort gate)” value is given as “high polyreactivity”.

Take “QVQLVESGGGLVQAGGSLRLSCAASGSIFAYYAMGWYRQAPGKERELVAAITSGDSTYYADSVKGRFTISRDNAKNTVYLQMNSLKPEDSAVYYCAADVSWRSNWYDYWGQGTQVTVSS”: the “polyreactivity (PSR sort gate)” value is on record as “low polyreactivity”.

With “QVQLVESGGGLVQAGGSLRLSCAASGSIFAYYVMGWYRKAPGKERELVAAITSVGSTNYADSVKGRFTISRDNAKNTVYLQMNCLKPEDTAVYSCAAVQYQASYYYWGQGTQVTLSS”, the “polyreactivity (PSR sort gate)” value is recorded as “low polyreactivity”.

On to “QVQLVESGGGLVQAGGSLRLSCAASGSIFDANAMGWYRQAPGKERELVATIRIGGSTNYADSVKGRFRISRDNAKNTVYLQMYSLKPEDTAGYYCAASRQFRSRRFYYWGQGTQVTVSS”, for which the “polyreactivity (PSR sort gate)” value is “high polyreactivity”.

As to “QVQLVESGGGLVQAGGSLRLSCAASGSIFDDNAMGWYRQAPGKERELVAAISANDGSTYYADSAKGRFTISRDNAKNTVYLQMNTLKPEDTAVYYCAAERYLSFDRYLYEYYYWGQGTQVTVSS”, the “polyreactivity (PSR sort gate)” value is recorded as “low polyreactivity”.

With “QVQLVESGGGLVQAGGSLRLSCAASGSIFDDNAMGWYRQAPGKERELVATINYGGGRTSYADSVKGRSTISRDNAKNTVYLQMNSLKPEDTAVYYCAADPRQKEDYWGQGTQVTVSS”, the “polyreactivity (PSR sort gate)” value is “low polyreactivity”.

For “QVQLVESGGGLVQAGGSLRLSCAASGSIFDDYAMGGYRQAHGKERELVAAISSSGTSTYYADSVKGRFTISRDNAKNTVYLQMNCLKPEDTAVYYCAARSAILKSAYLMDYWGQGTQVTVSS”, the “polyreactivity (PSR sort gate)” value was “low polyreactivity”.

Consider “QVQLVESGGGLVQAGGSLRLSCAASGSIFDDYAMGWYRQAPGKERELVAAISSSGTSTYYADSVKGRFTISRDNAKNTVYLQMNSLKPEDTAVYYCAKYAGVYEYDYWGQGTQVTVSS”, for which the “polyreactivity (PSR sort gate)” value is reported as “low polyreactivity”.

“QVQLVESGGGLVQAGGSLRLSCAASGSIFDDYAMGWYRQSPGQERELVAAISWSGGSTYYADSVKGRFTISRDNAKNTDYLQMNSLKPDDTAVYYCAGYDYDYLYGEYYWGQGTQVTVSS”: the “polyreactivity (PSR sort gate)” value is listed as “low polyreactivity”.

For the sequence “QVQLVESGGGLVQAGGSLRLSCAASGSIFDFNAMGWYRQVPGKERELVAAITSGGSTNYADSVKGRFTISRDNAKNTVYLQMNSLKPEDTAVYYCAARPARGASQGGYVRPWWYDYWGQGTQVTVSS”, the “polyreactivity (PSR sort gate)” value is “low polyreactivity”.

On to “QVQLVESGGGLVQAGGSLRLSCAASGSIFDFYAMGWYRQAPGKERELVAAITWSGDTTYYADSVKGRFTISRDNAKNTVYLQMNCLKPEDTAVYYCAAEGWYWWYGRDYYWGQGTQVTVSS”, for which the “polyreactivity (PSR sort gate)” value is “high polyreactivity”.

For the sequence “QVQLVESGGGLVQAGGSLRLSCAASGSIFDFYAMGWYRQAPGKERELVADISSSDGSTSYADSVKGRFTISRDNAKNTVYLQLNSLKPEDTAVYYCAASQLFGWFPYDYWGQGTQVTVSS”, the “polyreactivity (PSR sort gate)” value is listed as “high polyreactivity”.

As to “QVQLVESGGGLVQAGGSLRLSCAASGSIFDFYAMGWYRQAPGKERESVAAISWSGGSTYADSVKGRFTISRDNAKNTVYLQMNSLKPEDTAVYYCAARWGTYWGVLGGDPDIDYDYWGQGTQVTVSS”, the “polyreactivity (PSR sort gate)” value is on record as “low polyreactivity”.

Regarding “QVQLVESGGGLVQAGGSLRLSCAASGSIFDFYDMGWYRPAPGKERELVAAISSGGGSTYYADSVKGRFTISRDNAKNTVYLQMNSLKPEDTAVYYCAADLKGNYYLGIARYVLYYWGQGTQVTVSS”, the “polyreactivity (PSR sort gate)” value is reported as “low polyreactivity”.

“QVQLVESGGGLVQAGGSLRLSCAASGSIFDGNAMGWYRQAPGKERDLVAANTKNDGTTYYADSVKGRFTISRDNAKNTVYLQMNSLKQEDTAVYYCAAESVYQVYTYVSSGDYWGQGTQVTVSS”: the “polyreactivity (PSR sort gate)” value was “low polyreactivity”.

Take “QVQLVESGGGLVQAGGSLRLSCAASGSIFDGNAMVSYRQAPGKDRELVADISRGGSTYYADSVKGPFTISRDNAKNTVYLQMNSLTPEDTAVYYCNVEFFFWPYEYGYWGQGTQVTVSS”: the “polyreactivity (PSR sort gate)” value was “low polyreactivity”.

For the sequence “QVQLVESGGGLVQAGGSLRLSCAASGSIFDGNDMGWYRQAPGKEREKVAAITIGDASRFYADSVKGRFTISRDNAKNTVYFQMNRLKPEDTAVYYCAADRPGLEDDPIYDYWGQGTQVTVSS”, the “polyreactivity (PSR sort gate)” value is “low polyreactivity”.

On to “QVQLVESGGGLVQAGGSLRLSCAASGSIFDGYAMGWYRQAPGKEREFVASIRFSTGRTYYADSVKGRFTISRDNAKNTVYLQMNSLKPEDTAVYYCNAPQGFVWRYSSWGPYDYWGQGTQVTVSS”, for which the “polyreactivity (PSR sort gate)” value is “high polyreactivity”.

For “QVQLVESGGGLVQAGGSLRLSCAASGSIFDGYAMGWYRQAPGKETELVARITWSGGSTYYADSVKWRFTISRDNAKNTVYLQMNSLKPEDTAVYYCNVDQVHPTRGLDYWGQGTQVTVSS”, the “polyreactivity (PSR sort gate)” value is “low polyreactivity”.

Consider “QVQLVESGGGLVQAGGSLRLSCAASGSIFDGYAMGWYRQAPWKERELVAAISYTGGRKYYADSVKGRFTISRDNAKNTVYLQMNSLKPEDTAVYYCAARYHLGRSPRYYRGQGTQVTVSS”, for which the “polyreactivity (PSR sort gate)” value is on record as “high polyreactivity”.
